Experimental data taken from publication PMC6969876, “NADPH biosensor-based identification of an alcohol dehydrogenase variant with improved catalytic properties caused by a single charge reversal at the protein surface” (AMB Express, 2020).
Changes are numbered by the printed parent chain. Names and notes keep the numbering of the source.

B1: LbADH (Levilactobacillus brevis) (protein)
chain: SNRLDGKVAIITGGTLGIGLAIATKFVEEGAKVMITGRHSDVGEKAAKSVGTPDQIQFFQHDSSDEDGWTKLFDATEKAFGPVSTLVNNAGIAVNKSVEETTTAEWRKLLAVNLDGVFFGTRLGIQRMKNKGLGASIINMSSIEGFVGDPSLGAYNASKGAVRIMSKSAALDCALKDYDVRVNTVHPGYIKTPLVDDLPGAEEAMSQRTKTPMGHIGEPNDIAYICVYLASNESKFATGSEFVVDGGYTAQ
B2: LbADH (Levilactobacillus brevis; K72E) (protein)
chain: B1 chain with K71E

How the values were obtained:
purified protein [1] = substrate: CC(=O)CCC(C)=O; experiment: purified protein; type: biochemical, Levilactobacillus brevis; conditions: 0.3 mM NADPH, 1 mM MgCl2, 50 mM TEA pH 7.0, 30 °C
purified protein [2] = substrate: COC(=O)CC(C)=O; experiment: purified protein; type: biochemical, Levilactobacillus brevis; conditions: 0.3 mM NADPH, 1 mM MgCl2, 50 mM TEA pH 7.0, 30 °C

Row | Protein | Km (purified protein [1]) | Vmax (purified protein [1]) | Km (purified protein [2]) | Vmax (purified protein [2])
1 | B1 | 5.1 ± 0.6 mM | 148 µmol/min/mg | 1.13 ± 0.06 mM | 154 µmol/min/mg
2 | B2 | 4.3 ± 0.5 mM | 173 µmol/min/mg | 0.67 ± 0.04 mM | 221 µmol/min/mg
